{
  "source": "patent US20230107890A1",
  "about": "(HOBER BIOTECH, published 2023)",
  "binders": {"B1": {"name": "MG-DEAVDANS-ADAPT6-GSSC (designed binder)", "chain": "MGDEAVDANSLAAAKETALYHLDRLGVADAYKDLIDKAKTVEGVKARYFEILHALPGSSC", "notes": "also called non-fused ADAPT6; unfused control"}, "B2": {"name": "MG-DEAVDANS-ADAPT6-(SSSG)3-ABD035-GSSC (designed binder)", "chain": "MGDEAVDANSLAAAKETALYHLDRLGVADAYKDLIDKAKTVEGVKARYFEILHALPSSSGSSSGSSSGLAEAKVLANRELDKYGVSDFYKRLINKAKTVEGVEALKLHILAALPGSSC"}, "B3": {"name": "MG-DEAVDANS-ADAPT6-(SSSG)5-ABD35-GSSC (designed binder)", "chain": "MGDEAVDANSLAAAKETALYHLDRLGVADAYKDLIDKAKTVEGVKARYFEILHALPSSSGSSSGSSSGSSSGSSSGLAEAKVLANRELDKYGVSDFYKRLINKAKTVEGVEALKLHILAALPGSSC", "notes": "also called ADAPT6-(SSSG)5-ABD035"}, "B4": {"name": "MG-DEAVDANS-ABD035-(SSSG)3-ADAPT6-GSSC (designed binder)", "chain": "MGDEAVDANSLAEAKVLANRELDKYGVSDFYKRLINKAKTVEGVEALKLHILAALPSSSGSSSGSSSGLAAAKETALYHLDRLGVADAYKDLIDKAKTVEGVKARYFEILHALPGSSC", "notes": "also called ABD035-ADAPT6"}, "B5": {"name": "MG-DEAVDANS-ABD35-(SSSG)5-ADAPT6-GSSC (designed binder)", "chain": "MGDEAVDANSLAEAKVLANRELDKYGVSDFYKRLINKAKTVEGVEALKLHILAALPSSSGSSSGSSSGSSSGSSSGLAAAKETALYHLDRLGVADAYKDLIDKAKTVEGVKARYFEILHALPGSSC", "notes": "also called ABD035-(SSSG)5-ADAPT6"}, "B6": {"name": "MG-DEAVDANS-ADAPT6-GSSC-DOTA-177Lu (designed binder)", "chain": "MGDEAVDANSLAAAKETALYHLDRLGVADAYKDLIDKAKTVEGVKARYFEILHALPGSSC([maleimide-DOTA])", "modifications": "also: 177Lu chelated by DOTA"}, "B7": {"name": "MG-DEAVDANS-ADAPT6-(SSSG)3-ABD035-GSSC-HPEM-125I (designed binder)", "chain": "B2 chain", "modifications": "C-terminal cysteine coupled to 125I-labelled ((4-hydroxyphenyl)ethyl)maleimide (HPEM)", "notes": "also called Inventive 2"}, "B8": {"name": "MG-DEAVDANS-ADAPT6-(SSSG)3-ABD035-GSSC-DOTA-177Lu (designed binder)", "chain": "B2 chain", "modifications": "C-terminal cysteine coupled to maleimide-DOTA chelating 177Lu", "notes": "also called Inventive 1"}, "B9": {"name": "MG-DEAVDANS-ABD035-(SSSG)3-ADAPT6-GSSC-HPEM-125I (designed binder)", "chain": "B4 chain", "modifications": "C-terminal cysteine coupled to 125I-labelled ((4-hydroxyphenyl)ethyl)maleimide (HPEM)"}, "B10": {"name": "MG-DEAVDANS-ABD035-(SSSG)3-ADAPT6-GSSC-DOTA-177Lu (designed binder)", "chain": "B4 chain", "modifications": "C-terminal cysteine coupled to maleimide-DOTA chelating 177Lu"}, "B11": {"name": "MG-DEAVDANS-ADAPT6-GSSC-HPEM-125I (designed binder)", "chain": "B1 chain", "modifications": "C-terminal cysteine coupled to 125I-labelled ((4-hydroxyphenyl)ethyl)maleimide (HPEM)", "notes": "Radioiodinated form of the non-fused control"}, "B12": {"name": "MGDEAVDANS-ADAPTNeg-(SSSG)3-ABD035-GSSC (designed binder)", "chain": "MGDEAVDANSLAEAKVLANRELDKYGVADAYKNLINNAKTVEGVKARIDEILAALPSSSGSSSGSSSGLAEAKVLANRELDKYGVSDFYKRLINKAKTVEGVEALKLHILAALPGSSC"}},
  "note": "Groups on a side chain read outwards from the residue. No end group written: not given here. *: point of attachment. DOTA = O=C(O)CN1CCN(CC(=O)O)CCN(CC(=O)*)CCN(CC(=O)O)CC1",
  "data": [
    {"molecular_target": "T1, Human Epidermal growth factor receptor 2 (HER2), immobilised on a CM5 chip (human, UniProt P04626 23-652, limits assumed)", "experiment": "SPR, HER2 immobilised on CM5 chip, analyte 3.125-50 nM with 10x excess HSA", "protocol": "(§1) In the graphs of FIG. 4, the X axis represents time [s] and the Y axis represents Response Unit [RU].\n(§2) Target binding analysis was performed on a Biacore T200 system (GE Healthcare, Stockholm, Sweden) by injecting analytes over a CM5 chip immobilized with Murine Serum Albumin (MSA), Human Serum Albumin (HSA) and Human Epidermal growth factor receptor 2 (HER2) to a response level of […] each. Experimental parameters have been described previously (Garousi 2019).", "values": [
      {"binder": "B1", "binding result": "binds"}
    ]},
    {"molecular_target": "T2, Murine Serum Albumin (MSA) (murine, UniProt P07724 25-608)", "experiment": "SPR, MSA immobilised on CM5 chip, analyte injected at 3.125-50 nM", "protocol": "as §1, §2", "values": [
      {"binder": "B1", "binding result": "no binding (tested: 50 nM)"}
    ]},
    {"molecular_target": "T3, Human Serum Albumin (HSA) (human, UniProt P02768 25-609)", "T3 sequence (P02768 25-609 limits assumed)": "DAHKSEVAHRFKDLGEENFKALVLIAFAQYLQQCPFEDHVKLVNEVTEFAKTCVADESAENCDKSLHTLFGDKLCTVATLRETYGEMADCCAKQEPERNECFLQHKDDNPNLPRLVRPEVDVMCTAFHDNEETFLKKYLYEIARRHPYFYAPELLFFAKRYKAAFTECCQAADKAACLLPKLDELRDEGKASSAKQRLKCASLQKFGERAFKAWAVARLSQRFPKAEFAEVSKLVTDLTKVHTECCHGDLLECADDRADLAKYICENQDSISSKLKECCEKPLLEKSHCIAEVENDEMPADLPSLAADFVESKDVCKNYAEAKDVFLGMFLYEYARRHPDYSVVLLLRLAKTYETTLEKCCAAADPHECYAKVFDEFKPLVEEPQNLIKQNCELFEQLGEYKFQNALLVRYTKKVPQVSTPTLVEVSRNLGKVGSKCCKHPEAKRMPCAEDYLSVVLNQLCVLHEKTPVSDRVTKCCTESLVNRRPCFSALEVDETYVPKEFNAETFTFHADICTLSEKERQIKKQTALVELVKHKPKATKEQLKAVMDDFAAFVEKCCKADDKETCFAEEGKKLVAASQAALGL", "experiment": "SPR, HSA immobilised on CM5 chip, analyte injected at 3.125-50 nM", "protocol": "as §1, §2", "values": [
      {"binder": "B1", "binding result": "no binding (tested: 50 nM)"}
    ]},
    {"molecular_target": "T2, Murine Serum Albumin (MSA)", "experiment": "SPR (Biacore T200), MSA immobilised on CM5 chip", "protocol": "as §2", "units": {"Kd": "nM"}, "values": [
      {"binder": "B2", "Kd": 1.76},
      {"binder": "B3", "Kd": 1.8},
      {"binder": "B4", "Kd": 1.83}
    ]},
    {"molecular_target": "T3, Human Serum Albumin (HSA)", "experiment": "SPR (Biacore T200), HSA immobilised on CM5 chip", "protocol": "as §2", "units": {"Kd": "nM"}, "values": [
      {"binder": "B2", "Kd": 0.0498},
      {"binder": "B5", "Kd": 0.052},
      {"binder": "B3", "Kd": 0.0538},
      {"binder": "B4", "Kd": 0.0521}
    ]},
    {"molecular_target": "T4, HER2 on living HER2-expressing cells (SKOV-3, BT-474) (human, UniProt P04626 23-1255)", "T4 construct": "whole, on cells; also called HER2 receptors in cells; HER2 on living cells", "experiment": "LigandTracer, living SKOV-3 cells; KD1 (stronger of two interactions)", "protocol": "(§3) Cell-lines were purchased from American Type Culture Collection (ATCC, Manassas, Va.). […] The affinity of radiolabeled conjugates binding to living HER2-expressing SKOV-3 cells was determined using LigandTracer (Ridgeview Instruments AB) by an established method as described previously (Tolmachev 2014).", "units": {"Kd": "nM"}, "values": [
      {"binder": "B6", "Kd": 0.337},
      {"binder": "B7", "Kd": 0.6},
      {"binder": "B8", "Kd": 0.485},
      {"binder": "B9", "Kd": 0.15},
      {"binder": "B10", "Kd": 0.432},
      {"binder": "B11", "Kd": 0.41}
    ]},
    {"molecular_target": "T1, Human Epidermal growth factor receptor …", "experiment": "SPR (Biacore T200), HER2 immobilised on CM5 chip", "protocol": "as §2", "units": {"Kd": "nM"}, "values": [
      {"binder": "B2", "Kd": 4.67},
      {"binder": "B5", "Kd": 4.32},
      {"binder": "B3", "Kd": 4.45},
      {"binder": "B4", "Kd": 5.2}
    ]},
    {"molecular_target": "T1, Human Epidermal growth factor receptor …", "experiment": "SPR, successive injections without regeneration, on HER2; concentrations not given", "values": [
      {"binder": "B12", "binding result": "no binding"}
    ]},
    {"molecular_target": "T4, HER2 on living HER2-expressing cells …", "experiment": "LigandTracer, living SKOV-3 cells; KD2 (weaker of two interactions)", "protocol": "as §3", "units": {"Kd": "nM"}, "values": [
      {"binder": "B6", "Kd": 41},
      {"binder": "B7", "Kd": 36},
      {"binder": "B8", "Kd": 33},
      {"binder": "B9", "Kd": 28},
      {"binder": "B10", "Kd": 38},
      {"binder": "B11", "Kd": 27}
    ]}
  ]
}
